Literature values as cited in publication PMC8100127.

Tests used:
[1] = biological target: CA 15-3 (MUC1) (UniProt P15941); conditions: No purified-protein binding assay in this paper (Kd values cited). TAS on plasma EVs: 0.1 uM Cy5-aptamer, 1x PBS, 2 mM MgCl2, 25 C, 2 h
[2] = biological target: T1, VEGF K321N;internal_change (UniProt P15692); conditions: No purified-protein binding assay in this paper (Kd values cited). TAS on plasma EVs: 0.1 uM Cy5-aptamer, 1x PBS, 2 mM MgCl2, 25 C, 2 h
T1 sequence: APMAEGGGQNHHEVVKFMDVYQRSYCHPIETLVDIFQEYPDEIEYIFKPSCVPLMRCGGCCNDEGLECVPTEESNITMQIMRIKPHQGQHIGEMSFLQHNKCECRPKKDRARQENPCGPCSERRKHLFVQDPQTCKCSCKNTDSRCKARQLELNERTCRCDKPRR

Sequence of CA 15-3 (MUC1) (P15941 24-1097): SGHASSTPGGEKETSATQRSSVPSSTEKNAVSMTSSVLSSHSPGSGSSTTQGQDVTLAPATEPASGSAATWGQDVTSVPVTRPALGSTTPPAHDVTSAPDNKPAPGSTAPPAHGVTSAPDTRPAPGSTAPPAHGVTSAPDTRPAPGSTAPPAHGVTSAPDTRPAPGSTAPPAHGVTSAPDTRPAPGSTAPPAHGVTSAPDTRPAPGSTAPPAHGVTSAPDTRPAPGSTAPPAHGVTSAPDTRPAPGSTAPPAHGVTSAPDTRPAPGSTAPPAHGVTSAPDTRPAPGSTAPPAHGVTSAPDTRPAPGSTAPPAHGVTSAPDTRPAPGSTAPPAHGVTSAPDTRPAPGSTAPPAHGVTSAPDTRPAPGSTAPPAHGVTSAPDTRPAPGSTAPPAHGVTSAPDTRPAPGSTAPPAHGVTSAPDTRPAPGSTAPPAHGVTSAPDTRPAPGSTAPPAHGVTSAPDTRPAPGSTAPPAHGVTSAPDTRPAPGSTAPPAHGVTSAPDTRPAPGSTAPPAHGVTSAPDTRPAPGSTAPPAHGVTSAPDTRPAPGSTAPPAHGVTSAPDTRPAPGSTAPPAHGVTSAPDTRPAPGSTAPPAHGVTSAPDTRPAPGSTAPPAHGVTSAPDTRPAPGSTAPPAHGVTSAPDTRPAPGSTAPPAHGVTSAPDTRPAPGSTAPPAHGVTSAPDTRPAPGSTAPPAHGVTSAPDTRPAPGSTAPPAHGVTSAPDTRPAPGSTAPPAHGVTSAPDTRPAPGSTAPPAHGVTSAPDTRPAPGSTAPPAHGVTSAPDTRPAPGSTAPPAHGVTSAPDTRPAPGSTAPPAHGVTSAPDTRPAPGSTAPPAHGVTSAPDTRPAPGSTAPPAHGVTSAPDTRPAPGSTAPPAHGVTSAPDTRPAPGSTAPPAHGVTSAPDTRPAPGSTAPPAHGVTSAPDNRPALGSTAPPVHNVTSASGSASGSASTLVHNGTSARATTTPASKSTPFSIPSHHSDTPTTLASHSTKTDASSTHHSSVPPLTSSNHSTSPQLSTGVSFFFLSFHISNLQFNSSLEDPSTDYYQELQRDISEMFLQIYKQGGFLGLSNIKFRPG

Sequence	Kd [1] [µM]	Kd [2] [µM]
GCAGTTGATCCTTTGGATACCCTGG [CA 15-3 aptamer]	0.000135	–
TTCCCGTCTTCCAGACAAGAGTGCAGGG [VEGF aptamer]	–	0.4
